# Test results taken from patent US20060191037, “Plant transcription factor that is involved in sugar signalling” (published 2006).
# Tests used:
# Conditions in all cases: tags: N-terminal His-tag (pET-15b, E. coli BL21(DE3))
# [1] = target: T1, SUSIBA2 (WRKY transcription factor; purified fraction with 70 and 68 kDa forms) (Hordeum vulgare, UniProt Q6VWJ6 Q6VWJ6:1-573); assay: EMSA; binding negligible
# From the text: (§1) The 822-bp long SphI/HaeII fragment, encompassing SP8a and flanking sequences, as well as the 437-bp long BspHI/HaeII fragment, containing SP8a and downstream flanking sequence, formed prominent DNA-protein complexes with the purified SUSIBA2 fraction. Much to our surprise, however, the 510-bp long SphI/BsaI fragment, containing SP8a and upstream flanking sequence, bound only very poorly to SUSIBA2. We concluded that, in fact, the target for SUSIBA2 in the iso1 promoter is not SP8a but one or more sites downstream of the SP8a element. […] To follow up on this observation, we carried out EMSAs with oligonucleotides consisting of the iso1 SURE sequence.
# (§2) EMSAs were carried out essentially as described by Sun et al. (1999). The competitor probes were prepared by annealing different non-labeled oligonucleotides in 14 mM Tris-HCl (pH 8.0), 7 mM MgCl₂.
# [2] = target: T1, SUSIBA2 (WRKY transcription factor; …); assay: EMSA; two complexes, attributed to 70 and 68 kDa forms
# [3] = target: T1, SUSIBA2 (WRKY transcription factor; …); assay: EMSA; strong binding
# From the text: as §1, §2
# T1 sequence (Q6VWJ6 whole entry, the tested form may be a part, one chain of several): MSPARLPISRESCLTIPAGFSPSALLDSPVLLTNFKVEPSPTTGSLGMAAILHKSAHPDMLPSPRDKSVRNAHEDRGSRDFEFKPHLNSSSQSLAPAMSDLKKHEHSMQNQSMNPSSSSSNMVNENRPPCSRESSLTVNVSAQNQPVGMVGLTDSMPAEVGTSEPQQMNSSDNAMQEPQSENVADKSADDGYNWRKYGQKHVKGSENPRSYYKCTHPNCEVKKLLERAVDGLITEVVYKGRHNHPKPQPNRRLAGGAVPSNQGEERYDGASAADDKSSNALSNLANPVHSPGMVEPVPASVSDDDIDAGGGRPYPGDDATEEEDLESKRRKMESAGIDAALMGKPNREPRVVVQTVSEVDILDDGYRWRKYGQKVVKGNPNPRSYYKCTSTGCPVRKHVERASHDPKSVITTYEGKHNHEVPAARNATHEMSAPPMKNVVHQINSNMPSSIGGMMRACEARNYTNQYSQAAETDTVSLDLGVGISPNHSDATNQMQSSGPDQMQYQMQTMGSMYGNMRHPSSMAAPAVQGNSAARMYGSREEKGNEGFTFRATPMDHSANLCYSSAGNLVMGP
binder,measurement,setting,value
iso1 SP8a oligonucleotide (dsDNA) DNA 1: CCCTCGTGGAAGCAAAACTGTGTTTCTCGC DNA 2: GCGAGAAACACAGTTTTGCTTCCACGAGGG,binding result,[1],no binding
iso1 W box oligonucleotide (dsDNA) DNA 1: TCGCTAACCAGTGACTTCCACGTTTCATCATTTATT DNA 2: AATAAATGATGAAACGTGGAAGTCACTGGTTAGCGA,binding result,[2],binds
iso1 SURE (SURE-b) oligonucleotide (dsDNA) DNA 1: GGAAAACCGAAATACCAAAAAATAATAATAAAATAATAAT DNA 2: ATTATTATTTTATTATTATTTTTTGGTATTTCGGTTTTCC,binding result,[3],binds
